Laboratory results taken from patent US20050142141A1 (University of California, published 2005).

Biological target: T1, soluble extracellular domain (ECD) of the human insulin receptor (human, UniProt P06213 28-956, limits assumed)
T1 construct: extracellular domain; also called HIR ECD; extracellular domain of the HIR
Assay: immunoradiometric assay (IRMA) on HIR ECD with [125I]-murine 83-14 MAb as ligand
Text: In the IRMA, the antigen was the extracellular domain of the HIR, which was produced from transfected CHO cells and purified by lectin affinity chromatography of CHO cell conditioned medium.

B1: murine 83-14 HIRMAb (antibody, V domains shown)
VH: QVQLQESGPELVKPGALVKISCKASGYTFTNYDIHWVKQRPGQGLEWIGWIYPGDGSTKYNEKFKGKATLTADKSSSTAYMHLSSLTSEKSAVYFCAREWAYWGQGTLVTVSA
VL: DIQMTQSPSSLSASLGERVSLTCRASQDIGGNLYWLQQGPDGTIKRLIYATSSLDSGVPKRFSGSRSGSDYSLTISSLESEDFVDYYCLQYSSSPWTFGGGTKMEIKR
notes: Intact murine IgG from the 83-14 hybridoma; the murine constant regions and isotype are not; also called HIRMAb 83-14; MAb 83-14
  Kd: 2.7 nM

B2: Version 5 humanized HIRMAb (antibody, human IgG1, V domains shown)
VH: QVQLLESGAELVRPGSSVKISCKASGYTFTNYDIHWVKQRPGQGLEWIGWIYPGDGSTKYNEKFKGKATLTADKSSSTAYMHLSSLTSEKSAVYFCAREWAYWGQGTTVTVSA
VL: DIQMTQSPSSLSASVGERVTITCRASQDIGGNLYWYQQKPGKAPKLLIYATSSLDSGVPSRFSGSGSGTDYTFTISSLQPEDIATYYCLQYSSSPWTFGQGTKVEIKR
notes: also called version 5 HIRMAb; Version 5 humanized 83-14 HIRMAb
  Kd: 3.7 nM
